B1: PpGH3-1: GH3 protein, accession CAD42870 (protein, listed as Physcomitrella patens)
chain: MASEVAKPVENGIHPKLEQSFDAPAATKPSNSELLKLHRDGVPFVMPSKRGIDTTAPDFDPQDFLDLLAEDVMFIQHEKLREILEVQADVEYLRRVGLNGRTDVESFRKCVPIVSYGDLEADIMRVVNGEKTPIFTVDPIVTLNLSSGTTAGKPKFIPSTTRAYEYFMFLQTFVTSIYRREFPGYKDGTSFTLAFAGKQIDTPSGIKAGAQSTNHFRGPMFRNRVRNANREYCVPDEVILSDDTTQSMYCHLLCALAQAPEIVKVYGTFAASIVSAVRALQKHWSEIVEDIRTGTLNAKITEPEMRTAVQQMLHPNPDLASRIEEECSKDNWEGILPRLFPNAHFVSCVISGSMLQYAPALKHFSGHLPTISLAYAACECSFIGFNPSMKCAPEDITYMLWPETAYYEFIPLDEDSNPEQDGDVVRTVEACDLEVGRQYELVVTNVIGLYRYRLGDVLTMKRFHKTAPVFEFVRRKNVILSVHTDKTDEKELQSVVNLATEALAGTGMELSDYTSTADVSTLPGRYVIFWEMVDSSDLDYDVLQHCANTLDANFNSDYRRWRSGHQIGPLELRIVKEGTFNRVMDSAVARGASPSQYKPPRCVNNPHTRQILDDGLVASFHSTITPNPAPIALTGS
B2: AtGH3-7: GH3 protein, accession AAC00604 (protein, listed as Arabidopsis thaliana)
chain: MSLTSDLSEKSSDKMKVLEDLTSNVTQIQDNVLEEILTLNANTNYLQKFFLGSFDKESFKKNVPVVTYEDVKPYIERVVNGEPSNVISARPITGFVLSTGTSGGAQKMMPWNEKYLDNLTFMYDLRMHIISNNVKDVEKGKAMMFYFTKLESITPSGLPARVASSSYLKSNYFKNRPSNWYYSYTSPDEVTLCPDNKQNLYCHLLCGLVQRNEVTRMGSIFASVMVRAIKFLEDSWEELCSNIRSGQLSEWITDIGCRDSVSLVLGGPHPEAADTIEQICNQKCWKGIITRLWPKAKYIETIVTGSMVQYVPTLNYYSNNMLPLISTIYASSETQFGLNLNPMCKPEDVSYTFMPNVSYFEFIPVDGDKNDVVDLADVKLGCCYEAVVTNFSGLYRIRVGDILVVTGFHNKAPQFRFIRRDNVVLSIDLDKTNEDDLFKAVNNAKLTLDSSHLMLIDFTSYADISTIPGHYVVYWEVKNKNEDKKSKKHIELKEETFSECCLLMEDSLDSVYKICRFKEESVGPLEIKVVRQGTFDSLMDYFISQGASIGQYKTPRCIKSGKALEVLEENVVATFFST
B3: AtGH3-19: GH3 protein, accession AAG60122 (protein, listed as Arabidopsis thaliana)
chain: MSLSVELKDLEVLTTNAKQIQDDVLKEILTLNANTEYLKRFLDGSSDKELFKKNVPVVSYNDVKPYIERVANGEPSDVISGGTITRFVQSTGTSGGIHKIFPVNDKYIENLGYLLAVSSLITSNDKVDEKGKKMAFLYNRLESKTPSGLALSSSFTSYFMSDYFKNRSSKCNSEYTSPDQVILCPDNNQSVYCHLLCGLSQREKVVGVSATFAHALIKAINALQIYWKELSSNIRSGHVSEWITDLDCKNAVSAILGGPDPELADVIEQECSHKSWEGIITRLWPKAKFIECIVTGQMAQYIPTLDFYSNKLPIVSMVYGSSESIFGVNVDPLSKPQDVSYTFLPNISYFEFLPIDHEEDMNTIVDLVGVKLGCYYETVVTSYFGLHRYLIGDILQVTGFYNNTPQFRFVRRKNIVLSVNSEATTEQDILKGLASATLVLESSNSMLTGFTCYADISSFPGHYVFYWELKAKDVDDVVELDENVLEECCYALEESFDALYKRLRSKEGSIGALEIKVVQQGTFDSLMEYFISKGGSVAQYKTPMCINSSETLAVLEDKVIARFYSQKSPPLNL
B4: AIGH3-14: GH3 protein, accession EFH47823 (protein, listed as Arabidopsis lyrata)
chain: MLPKFDPTDQKACLSLLEDVTTNVKQIQDSVLEAILSRNARTEYLSGFLNGQVDKQSFKKNLPVVTYEDIRPYIDRIANGEPSDLICDRPISVLLTSSGTSGGVPKLIPLTTDELEQRISFASLYRPLLYKYVEGIRERKSFMLYFVTRESETASGILVRTMITCVLKSLKPSNSFIWDQTQISPHGISTCSDTTQSMYCQLLCGLLQRDNVGRLGAPFASSFLKIIKFLEDHWPEFCSNIRTGRLSDWITDPQCVSGIGKFLTAPDPELASLIEQECSQTSWEAIVKRLWPKAKCIEAIVTGTMAQYIPLLEFYSGGLPVISTFYGSSECFIGLNLNPLSKPSDVSYTIIPCMAYFEFLEVGKDYQETGHDPAEKPVVVDLVDVKIGHDYEPVVTTFAGLYRYRLGDVLRVTGFYNNAPQFHFVGRQKVVLSIDMDKTYEEDLLKAVTNAKLLLEPHDLMLMDFTSRVDSSSFPGHYVLYWELGSKVKDAKLELDPNVLEECCFTIEESLDAVYRKGRKNDKNIGPLEIKVVKSGAFEELMNLFLSRGSSVSQYKTPRSVTNEEAVKILESNVVSEFLSRKTPSWELHELYSNR
B5: ZmACF88044: GH3 protein, accession ACF88044 (protein)
chain: MATYEDLQPYIRRIADGDRSPILSGHPVSEFLTSSGTSAGERKLMPTIEDELNRRQLLYSLQMPVMNLYVPGMDKGKALHFLFVKSETKTPGGLAARPVLTSYYKSNHFKNRPFDAYNNYTSPTAAILCADAFQSMYAQMLCGLCQRQDVLRVGAVFASGLLRAIRFLQLNWEQLAEDIEAGSLTPRVTDPSVREAVAGILRADPELAALVRSECSKGDWAGIITRIWPSTKYLDVIVTGAMAQYIPTLKYYSGGLPMACTMYASSECYFGLNLRPMCDPSEVSYTLMPNMCYFEFLPMDSAAASGGDASQLVDLARVEVGREYELVITTYAGLNRYRVGDVLQVTGFHNSAPQFRFVRRKNVLLSIESDKTDEAELQRAVERASALLRPHGAAVVEYTSQAYTKSIPGHYVIYWELLAKGPAGGAAVGEGTLERCCLEMEEALNTVYRQSRVADGSIGPLEIRVVRPGTFEELMDYAISRGASINQYKVPRCVTFPPIIELLDSRVVSSHFSPALPHWTPGQRSDSD
modifications: Zea mays
B6: AtGH3-12: GH3 protein, accession Q9LYU4 (protein, listed as Arabidopsis thaliana)
chain: MKPIFDINETFEKQLKDLTSNVKSIQDNLLEEIITPNTKTEYLQRFLIDRFDKELFKKNVPIVSYEDIKPYLDRVVNGESSDVISARTITGFLLSSGTSGGAQKMMPWNNKYLDNLTFIYDLRMQVITKHVKGVEEGKGMMFLFTKQESMTPSGLPARVATSSYFKSDYFKNRPSNWYYSYTSPDEVILCPNNTESLYCHLLCGLVQRDEVVRTGSIFASVMVRAIEVLKNSWEELCSNIRSGHLSNWVTDLGCQNSVSLVLGGPRPELADTIEEICNQNSWKGIVKRLWPNTKYIETVVTGSMGQYVPMLNYYCNDLPLVSTTYGSSETTFGINLDPLCKPEDVSYTFMPNMSYFEFIPMDGGDKNDVVDLEDVKLGCTYEPVVTNFAGLYRMRVGDIVLVTGFYNNAPQFKFVRRENVVLSIDSDKTNEEDLFKAVSQAKLVLESSGLDLKDFTSYADTSTFPGHYVVYLEVDTKEGEEKETAQFELDEEALSTCCLVMEESLDNVYKRCRFKDGSIGPLEIRVVRQGTFDSLMDFFISQGASTGQYKTPRCIKSGKALQVLETCVVAKFFSI

assay: LC-MS assay of GH3 conjugation of IAA with Asp or Glu; assay type: biochemical; conditions: conjugation of IAA with Asp by recombinant GH3 protein; IAA-Asp product by LC-MS
Procedure: (§1) To detect and monitor the formation of acyl conjugates with 2,4-D or dicamba, a sensitive LC-MS method was developed using the respective amino acid conjugate standards. […] The reaction was performed at 30° C., 105 rpm, for 3 hours in buffer containing 20 mM Tris-HCl (pH 8.0), 5 mM MgCl2, 5 mM auxin (IAA, 2,4-D or dicamba), 5 mM ATP, 5 mM Asp or Glu, 1 mM DTT and 44 to 164 μg/mL purified GH3 protein in 100 μL reaction. After 3 hours of reaction, 400 μL 100% MeOH was added to the reaction mixture for protein precipitation. The supernatant was diluted 20× in water and then analyzed by LC-MS (AB Sciex 4000 QTrap coupled with Shimadzu Nexera UHPLC) using a Phenomenex Luna 3 μm Phenyl-Hexyl (00B-4256-Y0) column. The concentration of the conjugates was calculated based on the standards. Kinetic parameters were estimated by fitting initial velocity values to the Michaelis-Menten equation.
(§2) The GH3 superfamily conjugase activity analysis of IAA, 2,4-D or dicamba with Asp or Glu was done using LC-MS to analyze the final conjugate products as described in Example 1. Protein sequences of GH3 homologs (Table 3) were obtained from public databases (NCBI, http://www.ncbi.nlm.nih.gov/) by Blast analysis of AtGH3.17 protein sequence (accession # Q9FZ87). Coding sequences were designed for optimal expression in E. coli based on the protein sequences and synthesized. Synthesized coding sequences along with N-term his-tag coding sequences were cloned into a pET24a-based E. coli expression vector. The E. coli expression vectors were transformed into OverExpress C41(DE3) cells (Lucigen) for protein expression. Recombinant E. coli strains were inoculated into 5 ml LB media supplemented with 40 mg/L kanamycin and cultured overnight at 37° C. The overnight culture (0.5 mL) was inoculated into 50 mL LB medium plus 40 mg/L kanamycin and grown at 30° C. until OD600 reached 0.6. The cultures were induced with 0.2 mM IPTG at 16° C., 230 rpm overnight. Cells were harvested by centrifugation at 7,000 rpm for 10 mins. The cell pellet from 50 mL of cell culture was frozen and thawed twice and then lysed in 800 μL lysis buffer A (150 mM NaCl, 50 mM Tris-HCl pH 8.0, 5 mM MgCl2, 10% glycerol) plus 20 mM imidazole, 1 mM DTT, 0.2 mg/ml lysozyme, 1/200 protease inhibitor cocktail (EMD set3, EDTA free) and 1/2000 endonuclease. Lysate was then centrifuged at 13,000 rpm for 30 min at 4° C. Supernatant was loaded onto 200 μL Ni-NTA columns pre-equilibrated with buffer A with 20 mM imidazole at 4° C. Each column was then washed with (1) 2×800 μL of buffer A with 10 mM imidazole, (2) 2×800 μL of buffer A with 20 mM imidazole and (3) 2×200 μL of buffer A with 50 mM imidazole. Protein was eluted with 200 μL of buffer A with 250 mM imidazole. The concentration was measured by Bradford assay. Purified protein was used in conjugation reaction assays as described in example 1.

Molecule | kcat (hrs−1) IAA-Asp
B1 | 0.000 h⁻¹
B2 | 0.000 h⁻¹
B3 | 0.000 h⁻¹
B4 | 0.000 h⁻¹
B5 | 0.000 h⁻¹
B6 | 0.000 h⁻¹

same assay, conditions: conjugation of IAA with Glu by recombinant GH3 protein; IAA-Glu product by LC-MS

Molecule | kcat (hrs−1) IAA-Glu
B1 | 0.000 h⁻¹
B2 | 5.361 h⁻¹
B3 | 3.177 h⁻¹
B4 | 1.756 h⁻¹
B5 | 0.000 h⁻¹
B6 | 10.015 h⁻¹

same assay, conditions: result in words

Molecule | IAA conjugation activity with Asp or Glu | Conjugation of Glu to IAA
B1 | IAA-inactive | 
B2 |  | can also conjugate Glu to IAA
B3 |  | can also conjugate Glu to IAA
B4 |  | can also conjugate Glu to IAA
B5 | IAA-inactive | 
B6 |  | can also conjugate Glu to IAA

assay: LC-MS assay of GH3 conjugation of 2,4-D with Asp or Glu; assay type: biochemical; conditions: conjugation of 2,4-D with Asp by recombinant GH3 protein; 2,4-D-Asp product by LC-MS; 5 mM 2,4-D substrate
Procedure: as §1, §2

Molecule | kcat (hrs−1) 2,4-D-Asp
B1 | 0.078 h⁻¹
B2 | 0.000 h⁻¹
B3 | 0.014 h⁻¹
B4 | 0.140 h⁻¹
B5 | 0.000 h⁻¹
B6 | 0.002 h⁻¹

same assay, conditions: conjugation of 2,4-D with Glu by recombinant GH3 protein; 2,4-D-Glu product by LC-MS; 5 mM 2,4-D substrate

Molecule | kcat (hrs−1) 2,4-D-Glu
B1 | 0.122 h⁻¹
B2 | 0.000 h⁻¹
B3 | 0.048 h⁻¹
B4 | 0.322 h⁻¹
B5 | 0.033 h⁻¹
B6 | 0.026 h⁻¹

same assay, conditions: result in words

Molecule | 2,4-D conjugation activity with Asp or Glu
B1 | 2,4-D conjugases
B5 | 2,4-D conjugases

Reference: patent publication US20150351390A1, “COMPOSITIONS AND METHODS FOR AUXIN-ANALOG CONJUGATION” (PIONEER HI-BRED INTERNATIONAL, INC., priority 2012, published 2015)
